B1: NCD1 (non-catalytic domain 1, a.a. 144-208 of hA3G) (other, human, UniProt Q9HC16 144-208, looked up)
chain: GPRATMKIMNYDEFQHCWSKFVYSQRELFEPWNNLPKYYILLHIMLGEILRHSMDPPTFTFNFNN
notes: range 144-208; not shown: N-terminal tag HA, V5, EGFP-HA or EGFP-V5, differing by experiment
B5: CD1 (catalytic domain 1, a.a. 1-143 of hA3G) (other, human, UniProt Q9HC16 1-143, looked up, not shown: small tags and cut ends)
chain: MKPHFRNTVERMYRDTFSYNFYNRPILSRRNTVWLCYEVKTKGPSRPPLDAKIFRGQVYSELKYHPEMRFFHWFSKWRKLHRDQEYEVTWYISWSPCTKCTRDMATFLAEDPKVTLTIFVARLYYFWDPDYQEALRSLCQKRD
notes: range 1-143; also called N-terminal catalytic domain
B7: N1/2 (CD1-NCD1, a.a. 1-208 of hA3G) (other, human, UniProt Q9HC16 1-208, looked up)
chain: MKPHFRNTVERMYRDTFSYNFYNRPILSRRNTVWLCYEVKTKGPSRPPLDAKIFRGQVYSELKYHPEMRFFHWFSKWRKLHRDQEYEVTWYISWSPCTKCTRDMATFLAEDPKVTLTIFVARLYYFWDPDYQEALRSLCQKRDGPRATMKIMNYDEFQHCWSKFVYSQRELFEPWNNLPKYYILLHIMLGEILRHSMDPPTFTFNFNN
notes: range 1-208; Expressed in 293T cells; tested in RNase A treated cell extracts; also called N-terminal half of hA3G; not shown: N-terminal tag HA, V5, EGFP-HA or EGFP-V5, differing by experiment

Data set [1] deals with the molecule itself. In words: co-IP of HA and V5 tagged forms, V5 IP, HA western.
Description: (§1) Twenty-four hours after transfection the cells were harvested and cell extracts were analyzed by co-immunoprecipitation (co-IP). Extracts were treated with RNase A prior to IP to eliminate interactions that were due to RNA bridging.
(§2) Co-immunoprecipitation analysis. […] 24 hours after transfection cell extracts were harvested in NP-40 lysis buffer (50 mM Tris pH 7.4, 150 mM NaCl, 0.1% NP-40) with Complete® Mini EDTA free protease inhibitors (Roche). Cell extracts were treated with 40 μg/mL of RNase A for 1 hour at 37° C. and subsequently pre-cleared with Protein A agarose beads (Roche) tumbling for 1 hour at 4° C. The pre-cleared extracts were split and added to a Protein A bead slurry±V5 (Invitrogen) or GFP antibody (Clontech) for immunoprecipitation by tumbling overnight at 4° C. The beads were washed 3 times with NP-40 lysis buffer and eluted 3 times with 1×Treat (50 mM Tris pH 7.4, 10 mM DTT, 0.1% SDS).
For data set [2], the target named is T1, Protein A (agarose beads, no antibody) (UniProt P38507 37-477).
T1 construct: Bead-only control of the immunoprecipitations; also called Protein A beads
In words: IP with Protein A beads alone.
Description: as §1, §2

Another data set addresses T2, EGFP-HA tagged Vif (HIV-1, UniProt P12504 1-192).
T2 construct: Expressed in 293T cells from pIRES-P; also called EGFP-HA-Vif; HIV-1 Vif; not shown: N-terminal EGFP-HA tag
In words: GFP antibody IP of EGFP-HA-Vif, western for the hA3G domain, RNase A treated 293T extracts.

Data set [3] concerns the molecule itself. Description: co-IP of HA and V5 tagged forms, V5 IP, HA western, RNase A treated 293T extracts.
Description: as §1, §2
Data set [4] deals with B7. In words: co-IP of HA and V5 tagged domains, V5 IP, HA western.
Description: as §1, §2
The target in data set [5] is T3, HIV-1 p55 Gag polyprotein (HIV-1, UniProt P12493 2-500).
T3 construct: Expressed in 293T cells co-transfected with HIV-1 DNA; detected with a p24 antibody
In words: V5 IP of hA3G domain, p24 western for Gag, RNase A treated 293T extracts.
Description: Co-IP experiments were performed using various hA3G domains and Gag or Vif following RNase A digestion of cell extracts.
as §2

For data set [6], the target named is B5. Description: co-IP of HA and V5 tagged domains, V5 IP, HA western.
Description: as §1, §2
Data set [7] deals with the molecule itself. In words: summary of the co-IP results of Example 2.
Description: as §1, §2
Data set [8] concerns the target B1. In words: co-IP of HA and V5 tagged domains, V5 IP, HA western.
Description: as §1, §2

T2 sequence (P12504 whole entry): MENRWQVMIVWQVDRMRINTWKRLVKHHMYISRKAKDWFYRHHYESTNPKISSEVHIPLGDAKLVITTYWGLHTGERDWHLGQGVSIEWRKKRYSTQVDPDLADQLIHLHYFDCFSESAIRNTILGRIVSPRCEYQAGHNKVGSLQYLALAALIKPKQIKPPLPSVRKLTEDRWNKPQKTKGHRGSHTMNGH

Regarding B1, the binding result in [1] and in data set [2] was “no binding” in each case.

B2: C1/2 (CD2-NCD2, a.a. 209-384 of hA3G) (other, human, UniProt Q9HC16 209-384, looked up)
chain: EPWVRGRHETYLCYEVERMHNDTWVLLNQRRGFLCNQAPHKHGFLEGRHAELCFLDVIPFWKLDLDQDYRVTCFTSWSPCFSCAQEMAKFISKNKHVSLCIFTARIYDDQGRCQEGLRTLAEAGAKISIMTYSEFKHCWDTFVDHQGCPFQPWDGLDEHSQDLSGRLRAILQNQEN
notes: Self co-IP was done with and without EGFP (±EGFP); also called C-terminal half of hA3G; not shown: N-terminal tag HA, V5, EGFP-HA or EGFP-V5, differing by experiment
For the molecule B2, the binding result with EGFP-HA tagged Vif is “no binding”; in [3] it was “binds”; in data set [2], “no binding”; in [4] it was “no binding”; in [5], “no binding”.

B3: CD2 (catalytic domain 2, a.a. 209-336 of hA3G) (other, human, UniProt Q9HC16 209-336, looked up)
chain: EPWVRGRHETYLCYEVERMHNDTWVLLNQRRGFLCNQAPHKHGFLEGRHAELCFLDVIPFWKLDLDQDYRVTCFTSWSPCFSCAQEMAKFISKNKHVSLCIFTARIYDDQGRCQEGLRTLAEAGAKIS
notes: also called C-terminal catalytic domain; not shown: N-terminal tag HA, V5, EGFP-HA or EGFP-V5, differing by experiment
Take B3: the binding result in [2] was “no binding”; in [6], “no binding”; in data set [7], “binds”; in data set [5], “no binding”.

B4: NCD2 (non-catalytic domain 2, a.a. 337-384 of hA3G) (other, human, UniProt Q9HC16 337-384, looked up)
chain: IMTYSEFKHCWDTFVDHQGCPFQPWDGLDEHSQDLSGRLRAILQNQEN
notes: range 337-384; not shown: N-terminal tag HA, V5, EGFP-HA or EGFP-V5, differing by experiment
As to B4, the binding result in data set [1], in data set [2] and in data set [8] was “no binding” in each case.

In the case of B5, the binding result in data set [1], in data set [2] and in [5] was “no binding” throughout.

B6: C3/4 (larger C-terminal domain lacking only CD1, a.a. 144-384 of hA3G) (other, human, UniProt Q9HC16 144-384, looked up)
chain: GPRATMKIMNYDEFQHCWSKFVYSQRELFEPWNNLPKYYILLHIMLGEILRHSMDPPTFTFNFNNEPWVRGRHETYLCYEVERMHNDTWVLLNQRRGFLCNQAPHKHGFLEGRHAELCFLDVIPFWKLDLDQDYRVTCFTSWSPCFSCAQEMAKFISKNKHVSLCIFTARIYDDQGRCQEGLRTLAEAGAKISIMTYSEFKHCWDTFVDHQGCPFQPWDGLDEHSQDLSGRLRAILQNQEN
notes: range 144-384; not shown: N-terminal tag HA, V5, EGFP-HA or EGFP-V5, differing by experiment
As for B6, the binding result in [3] is reported as “binds”; in [2], “no binding”.

Regarding B7, the binding result in data set [1] and in data set [2] was “no binding” in each case.

The record behind these values is patent US20100197768A1 (UNIVERSITY OF ROCHESTER, published 2010).
